Article PMC4909229, “Characterization of Staphylococcus aureus Primosomal DnaD Protein: Highly Conserved C-Terminal Region Is Crucial for ssDNA and PriA Helicase Binding but Not for DnaA Protein-Binding and Self-Tetrameri”
Values joined by “and” are separate entries in the source; they are usually repeats but may differ in a detail not shown here. Identical values can stand only once.

Key:
SaDnaD1-204 = biological target: T1, SaDnaD1-204 (Staphylococcus aureus subsp. aureus ED98, UniProt Q9EUT0 1-204, del205-228); test: SEC; Superdex 200 HR 10/30, Buffer B (20 mM HEPES, 100 mM NaCl, pH 7.0), purified protein 2 mg/mL (methods; 4 mg/mL in the results for SaDnaD), calibrated with standard proteins; oligomer size from the estimated native mass
T1 sequence: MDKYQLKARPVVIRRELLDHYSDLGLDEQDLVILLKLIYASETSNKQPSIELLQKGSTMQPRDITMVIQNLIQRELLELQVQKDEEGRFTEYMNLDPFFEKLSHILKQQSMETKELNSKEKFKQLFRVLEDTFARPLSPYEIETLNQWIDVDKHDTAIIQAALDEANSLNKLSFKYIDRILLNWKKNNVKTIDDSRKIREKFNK

[1] = biological target: Staphylococcus aureus PriA helicase (SaPriA) (Staphylococcus aureus subsp. aureus ED98); test: SPR; SaPriA or SaDnaA immobilised on CM5 chips, Biacore T200, 293 K, 40 mM Tris, 200 mM NaCl, 0.05% Tween-20, pH 8.0; SaDnaD solutions 7.6-250 nM as analyte; 1:1 (Langmuir) model
SaDnaD1-195 = biological target: T2, SaDnaD1-195 (Staphylococcus aureus subsp. aureus ED98, UniProt Q9EUT0 1-195, del196-228); test: SEC; Superdex 200 HR 10/30, Buffer B (20 mM HEPES, 100 mM NaCl, pH 7.0), purified protein 2 mg/mL (methods; 4 mg/mL in the results for SaDnaD), calibrated with standard proteins; oligomer size from the estimated native mass
T2 sequence: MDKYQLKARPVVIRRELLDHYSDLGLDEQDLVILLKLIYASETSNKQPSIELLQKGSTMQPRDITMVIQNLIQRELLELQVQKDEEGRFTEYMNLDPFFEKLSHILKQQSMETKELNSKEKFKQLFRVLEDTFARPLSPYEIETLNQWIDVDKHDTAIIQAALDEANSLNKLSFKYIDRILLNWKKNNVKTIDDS

[2] = biological target: Staphylococcus aureus PriA helicase (SaPriA) (Staphylococcus aureus subsp. aureus ED98)
[3] = biological target: Staphylococcus aureus PriA helicase (SaPriA) (Staphylococcus aureus subsp. aureus ED98); remark: listed apart in the source
[4] = biological target: Staphylococcus aureus DnaA (SaDnaA) (Staphylococcus aureus subsp. aureus ED98); test: SPR; SaPriA or SaDnaA immobilised on CM5 chips, Biacore T200, 293 K, 40 mM Tris, 200 mM NaCl, 0.05% Tween-20, pH 8.0; SaDnaD solutions 7.6-250 nM as analyte; 1:1 (Langmuir) model
[5] = biological target: Staphylococcus aureus PriA helicase (SaPriA) (Staphylococcus aureus subsp. aureus ED98); remark: listed apart in the source
SaDnaD1-200 = biological target: T3, SaDnaD1-200 (Staphylococcus aureus subsp. aureus ED98, UniProt Q9EUT0 1-200, del201-228); test: SEC; Superdex 200 HR 10/30, Buffer B (20 mM HEPES, 100 mM NaCl, pH 7.0), purified protein 2 mg/mL (methods; 4 mg/mL in the results for SaDnaD), calibrated with standard proteins; oligomer size from the estimated native mass
T3 sequence: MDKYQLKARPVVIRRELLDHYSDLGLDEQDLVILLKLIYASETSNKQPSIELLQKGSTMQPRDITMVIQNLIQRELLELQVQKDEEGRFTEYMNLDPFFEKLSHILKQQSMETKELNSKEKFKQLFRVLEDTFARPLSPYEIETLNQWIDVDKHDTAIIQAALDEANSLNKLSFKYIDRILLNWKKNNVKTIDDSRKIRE

[6] = biological target: Staphylococcus aureus DnaD (SaDnaD) (Staphylococcus aureus subsp. aureus ED98) (UniProt Q9EUT0); test: as above
SaDnaD [7] = biological target: T4, SaDnaD (Staphylococcus aureus subsp. aureus ED98, UniProt Q9EUT0 1-228); test: EMSA; EMSA: 20 mM Tris-HCl pH 8.0, 100 mM NaCl, 25 C, 30 min, 1.7 nM DNA, gel at 4 C in TBE; fluorescence: 20 mM Tris-HCl pH 8.0, 200 or 500 mM NaCl, 0.1 uM tetramer; conditions: protein: recombinant; tags: C-terminal His tag (pET21e); chain copies: 4; label: 5'-32P
T4 sequence: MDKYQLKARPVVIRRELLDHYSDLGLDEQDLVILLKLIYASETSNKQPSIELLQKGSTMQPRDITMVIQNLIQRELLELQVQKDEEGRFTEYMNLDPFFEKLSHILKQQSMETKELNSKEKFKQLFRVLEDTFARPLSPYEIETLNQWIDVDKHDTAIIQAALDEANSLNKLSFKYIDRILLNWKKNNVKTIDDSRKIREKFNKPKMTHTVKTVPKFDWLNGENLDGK

SaDnaD [8] = biological target: T4, SaDnaD; test: EMSA; two complexes summed; EMSA: 20 mM Tris-HCl pH 8.0, 100 mM NaCl, 25 C, 30 min, 1.7 nM DNA, gel at 4 C in TBE; fluorescence: 20 mM Tris-HCl pH 8.0, 200 or 500 mM NaCl, 0.1 uM tetramer; conditions: protein: recombinant, tags: C-terminal His tag (pET21e), chain copies: 4

**Q.** Which stoichiometry N (SaDnaD1-204) does the source give for “SaDnaD1-204 (from UniProt Q9EUT0 1-204) (domain or fragment)” here?
**A.** 4

**Q.** And the Kd [1]?
**A.** 11 nM

**Q.** Which results are given for “SaDnaD1-195 (from UniProt Q9EUT0 1-195) (domain or fragment)”?
**A.** stoichiometry N (SaDnaD1-195): 4; SaPriA ATPase activity with tag-free SaDnaD1-195 (10 μM), stimulation over SaPriA alone [2]: 2 fold; SaPriA ATPase activity with His-tagged SaDnaD1-195 (10 μM), stimulation over SaPriA alone [3]: 2 fold; Kd [4]: 150 nM; Fold of Vmax/Km of SaPriA ATPase with tag-free SaDnaD1-195 (10 μM) against PriA alone [5]: 1.2 fold

**Q.** For “SaDnaD1-200 (from UniProt Q9EUT0 1-200) (domain or fragment)”, which stoichiometry N (SaDnaD1-200) is on record?
**A.** 4

**Q.** And the Kd [1]?
**A.** 26 nM

**Q.** For “tag-free SaDnaDY176A mutant protein (from UniProt Q9EUT0 1-228) (natural protein)”, which Fold of Vmax/Km of SaPriA ATPase with tag-free SaDnaDY176A (10 μM) against PriA alone [5] is on record?
**A.** 5.1 fold

**Q.** With “Staphylococcus aureus DnaD (SaDnaD) (from UniProt Q9EUT0 1-228) (natural protein)” as the molecule, how does the stoichiometry N [6] read?
**A.** 4

**Q.** What about the SaPriA ATPase activity with tag-free SaDnaD (10 μM), stimulation over SaPriA alone [2] of the same molecule?
**A.** 11 fold and 12 fold

**Q.** And the SaPriA ATPase activity with His-tagged SaDnaD (10 μM), stimulation over SaPriA alone [3]?
**A.** 12 fold

**Q.** What about the Kd [1] of the same molecule?
**A.** 2 nM

**Q.** And the Kd [4]?
**A.** 17 nM

**Q.** What about the Fold of Vmax/Km of SaPriA ATPase with tag-free SaDnaD (10 μM) against PriA alone [5] of the same molecule?
**A.** 5.3 fold

B1: dT45 (ssDNA)
DNA: TTTTTTTTTTTTTTTTTTTTTTTTTTTTTTTTTTTTTTTTTTTTT
**Q.** For B1, which “apparent K (half saturation)” value (SaDnaD [7]) is on record?
**A.** 2000 ± 200 nM

B2: dT65 (ssDNA)
DNA: TTTTTTTTTTTTTTTTTTTTTTTTTTTTTTTTTTTTTTTTTTTTTTTTTTTTTTTTTTTTTTTTT
**Q.** For B2, which “apparent K (half saturation)” value (SaDnaD [8]; label: 5'-32P (EMSA), unlabeled in fluorescence titration) is on record?
**A.** 500 ± 100 nM

B3: dT25 (ssDNA)
DNA: TTTTTTTTTTTTTTTTTTTTTTTTT
**Q.** How did the “apparent K (half saturation)” value (SaDnaD [7]) turn out when B3 was run?
**A.** 4700 ± 800 nM

B4: dT35 (ssDNA)
DNA: TTTTTTTTTTTTTTTTTTTTTTTTTTTTTTTTTTT
**Q.** How did the “apparent K (half saturation)” value (SaDnaD [7]) turn out when B4 was run?
**A.** 2200 ± 300 nM

B5: dT60 (ssDNA)
DNA: TTTTTTTTTTTTTTTTTTTTTTTTTTTTTTTTTTTTTTTTTTTTTTTTTTTTTTTTTTTT
**Q.** B5 was tested. Which “apparent K (half saturation)” value (SaDnaD [8]; label: 5'-32P) did it give?
**A.** 1500 ± 100 nM

B6: dT55 (ssDNA)
DNA: TTTTTTTTTTTTTTTTTTTTTTTTTTTTTTTTTTTTTTTTTTTTTTTTTTTTTTT
**Q.** For B6, which “apparent K (half saturation)” value (SaDnaD [7]) is on record?
**A.** 1400 ± 100 nM
